Data from the supplement of paper PMC10567573.

B1: SNX3 (parent)
chain: FLRQLPFRGDDGIFDDNFIEERKQ
B2: WDR41 (parent)
chain: WTMQAYERNFWDPSPQLDTQQEIK

Variants of: B1
Test: protein stability index of a GFP-peptide fusion (GPS, HEK-293T) (PSI 1-6); higher = more stable
Settings: c terminus: a fixed tail appended
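Note: lentivirally expressed fusions sorted by FACS into six bins by GFP to DsRed ratio, PSI derived from sequencing read proportions per bin multiplied by bin number.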

Row | Variant | protein stability index
1 | E20R | 3.24
2 | E20Q | 2.74
3 | E20C | 3.23
4 | E20H | 2.29
5 | E20W | 2.17
6 | E20G | 3.17
7 | E20I | 1.67
8 | E20D | 3.35
9 | E20F | 2.88
10 | R8Y | 3.96
11 | R8D | 2.9
12 | R8T | 3.97
13 | R8G | 3.79
14 | R8L | 2.95
15 | R8N | 3.68
16 | R8Q | 4.22
17 | R8E | 3.94
18 | R8C | 2.33
19 | R8S | 3.61
20 | R8P | 3.75
21 | Q4M | 3.22
22 | Q4R | 2.27
23 | Q4E | 3.85
24 | Q4Y | 1.48
25 | Q4L | 1.91

Row | Variant | protein stability index
26 | Q4D | 4.26
27 | Q4H | 2.94
28 | Q4I | 2.55
29 | Q4V | 3.07
30 | Q4T | 3.08
31 | Q4K | 2.67
32 | Q4C | 2.83
33 | Q4P | 1.95
34 | Q4S | 2.95
35 | Q4G | 4.33
36 | I13W | 2.72
37 | I13A | 4.22
38 | I13T | 3.48
39 | I13E | 4
40 | I13N | 3.28
41 | I13M | 3.03
42 | I13Y | 3.83
43 | I13F | 3.03
44 | I13G | 3.52
45 | I13S | 3.8
46 | K23H | 3.38
47 | K23L | 2.49
48 | K23S | 3.16
49 | K23R | 2.95
50 | K23Q | 3.21

Row | Variant | protein stability index
51 | K23N | 3.92
52 | K23F | 2.9
53 | K23I | 2.47
54 | K23C | 3.36
55 | K23M | 3.26
56 | K23V | 2.49
57 | K23W | 2.75
58 | K23D | 4.48
59 | L5P | 3.78
60 | L5D | 3.71
61 | L5F | 3.36
62 | L5I | 2.18
63 | L5W | 1.96
64 | L5S | 4.01
65 | L5Y | 2.78
66 | L5N | 3.78
67 | L5K | 4.01
68 | L5T | 3.77
69 | L5E | 4.62
70 | L5A | 3.1
71 | P6F | 2.14
72 | P6N | 3.02
73 | P6C | 2.49
74 | P6S | 3.26
75 | P6I | 2.26

Row | Variant | protein stability index
76 | P6A | 2.22
77 | P6V | 2.29
78 | P6D | 3.31
79 | P6M | 1.74
80 | P6G | 3.45
81 | P6T | 2.92
82 | P6Y | 2.9
83 | P6W | 2.15
84 | P6E | 2.91
85 | N17W | 1.94
86 | N17V | 2.97
87 | N17Q | 3.71
88 | N17T | 3.22
89 | N17M | 2.79
90 | N17P | 3.23
91 | N17C | 3.27
92 | N17D | 3.83
93 | N17I | 2.7
94 | N17Y | 2.38
95 | N17A | 2.54
96 | N17K | 3.98
97 | N17H | 3.41
98 | N17E | 4.18
99 | Q24G | 3.29
100 | Q24I | 3.02

Row | Variant | protein stability index
101 | Q24C | 2.57
102 | Q24Y | 2.93
103 | Q24V | 2.61
104 | Q24A | 3.3
105 | Q24P | 2.6
106 | Q24F | 2.96
107 | Q24T | 2.84
108 | Q24R | 3.48
109 | Q24N | 4.03
110 | Q24K | 4.36
111 | Q24S | 2.75
112 | Q24M | 2.56
113 | D11S | 4.12
114 | D11F | 2.74
115 | D11C | 2.91
116 | D11H | 3.15
117 | D11R | 2.46
118 | D11G | 4.22
119 | D11V | 4.03
120 | D11E | 2.9
121 | D11L | 2.71
122 | D11W | 1.94
123 | D11A | 4.01
124 | D11I | 2.53
125 | D11Y | 2.32

Row | Variant | protein stability index
126 | G9F | 3.36
127 | G9Y | 2.53
128 | G9E | 3.17
129 | G9I | 2.9
130 | G9W | 3.02
131 | G9S | 3.41
132 | G9A | 3.68
133 | G9H | 3.08
134 | G9C | 2.79
135 | G9V | 3.08
136 | F14M | 3.67
137 | F14H | 4.32
138 | F14S | 3.87
139 | F14I | 3.76
140 | F14W | 3.38
141 | F14Q | 3.67
142 | F14V | 3.81
143 | F14A | 4.26
144 | F14L | 3.56
145 | F14K | 4.23
146 | F14C | 3.06
147 | E21C | 2.85
148 | E21M | 2.81
149 | E21H | 2.64
150 | E21R | 3.19

Row | Variant | protein stability index
151 | E21P | 2.62
152 | E21K | 3.33
153 | E21L | 3.34
154 | E21G | 2.49
155 | E21F | 2.39
156 | E21W | 2.1
157 | E21S | 2.83
158 | E21Y | 2
159 | E21I | 2.96
160 | E21N | 3.01
161 | E21Q | 2.84
162 | R3M | 2.76
163 | R3H | 3.12
164 | R3P | 4.09
165 | R3A | 3.28
166 | R3Q | 3.62
167 | R3S | 3.1
168 | R3C | 2.71
169 | R3D | 3.45
170 | R3I | 2.42
171 | R3V | 2.98
172 | R3T | 3.17
173 | R3L | 1.94
174 | R3E | 3.2
175 | D15P | 3.04

Row | Variant | protein stability index
176 | D15F | 2.74
177 | D15K | 2.96
178 | D15M | 3.28
179 | D15E | 3.18
180 | D15L | 3.28
181 | D15R | 2.71
182 | D15G | 3.12
183 | D15W | 2.89
184 | D15T | 3.94
185 | D15S | 3.15
186 | D15H | 3.06
187 | R22A | 3.56
188 | R22T | 3.77
189 | R22E | 3.73
190 | R22C | 2.85
191 | R22W | 4.24
192 | R22D | 3.44
193 | R22H | 3.19
194 | R22N | 3.78
195 | R22I | 2.78
196 | R22Y | 2.31
197 | R22M | 3.45
198 | R22G | 3.66
199 | R22S | 2.81
200 | R22V | 3.12

Row | Variant | protein stability index
201 | F1S | 4.72
202 | F1V | 3.87
203 | F1L | 3.83
204 | F1K | 4.68
205 | F1A | 4.63
206 | F1H | 5.32
207 | F1P | 4.99
208 | F1R | 4.59
209 | F1T | 4.59
210 | F1Y | 4.18
211 | F1W | 3.03
212 | I19V | 3.73
213 | I19A | 4.03
214 | I19F | 3.79
215 | I19D | 3.98
216 | I19T | 3.86
217 | I19L | 3
218 | I19H | 2.92
219 | I19G | 3.87
220 | I19K | 3.62
221 | I19W | 3.6
222 | I19N | 3.94
223 | I19M | 3.75
224 | I19Q | 4.12
225 | I19Y | 3.15

Row | Variant | protein stability index
226 | D16A | 2.62
227 | D16N | 2.88
228 | D16P | 3.4
229 | D16Y | 2.8
230 | D16T | 3.06
231 | D16W | 2.73
232 | D16I | 3.19
233 | D16L | 2.91
234 | D16V | 3.45
235 | D16H | 3.6
236 | D16M | 2.95
237 | D16F | 2.56
238 | D16K | 3.86
239 | G12T | 3.66
240 | G12L | 3.01
241 | G12C | 3.03
242 | G12E | 3.64
243 | G12K | 4.03
244 | G12V | 3.07
245 | G12N | 3.23
246 | G12W | 2.67
247 | G12S | 3.21
248 | G12F | 3.03
249 | G12D | 3.67
250 | G12I | 2.39

Row | Variant | protein stability index
251 | G12M | 3.79
252 | G12A | 3.79
253 | G12R | 3.1
254 | G12P | 2.74
255 | G12Y | 2.91
256 | L2E | 4.87
257 | L2S | 4.56
258 | L2C | 3.48
259 | L2A | 3.84
260 | L2D | 4.72
261 | L2P | 4.66
262 | L2Q | 3.07
263 | L2M | 4.01
264 | L2K | 2.81
265 | L2F | 3.16
266 | L2V | 2.19
267 | L2W | 3.02
268 | L2Y | 4.46
269 | L2H | 2.34
270 | L2T | 4.04
271 | F7R | 3.58
272 | F7G | 3.5
273 | F7C | 3.16
274 | F7T | 4.35
275 | F7Q | 3.59

Row | Variant | protein stability index
276 | F7H | 3.52
277 | F7P | 2.62
278 | F7Y | 3.07
279 | F7I | 2.83
280 | F7V | 3.83
281 | F7D | 4.03
282 | F7N | 3.87
283 | F7M | 3.32
284 | D10I | 2.03
285 | D10K | 3.41
286 | D10N | 2.64
287 | D10S | 3.35
288 | D10C | 3.52
289 | D10V | 3.72
290 | D10Q | 3.56
291 | D10H | 3.65
292 | D10A | 3.12
293 | D10W | 2.35
294 | D10E | 3.33
295 | D10P | 3.42
296 | D10G | 2.76
297 | D10T | 3.2
298 | D10M | 3.41
299 | F18I | 3.08
300 | F18R | 3.9

Row | Variant | protein stability index
301 | F18V | 3.67
302 | F18N | 4.16
303 | F18K | 3.44
304 | F18T | 3.96
305 | F18Y | 3.27
306 | F18L | 3.75
307 | F18C | 4.21
308 | F18Q | 3.94
309 | F18W | 3.2
310 | F18S | 4.3
311 | F18P | 3.62
312 | F18E | 4.47
313 | F18M | 3.79
314 | F18D | 4.12

Variants of: B2
Test: as above
Settings: c terminus: a fixed tail appended

Row | Variant | protein stability index
315 | I23Y | 2.32
316 | K24W | 1.46
317 | K24G | 2.29
318 | K24Y | 2.46
319 | K24L | 1.76
320 | K24A | 2.47
321 | K24N | 2.31
322 | K24S | 2.59
323 | K24V | 2.17
324 | K24P | 2.09
325 | K24E | 3.06
326 | K24Q | 2.44
327 | K24R | 2.58
328 | K24H | 2.29
329 | K24I | 1.98
330 | K24D | 2.83
331 | K24F | 2.01
332 | K24M | 1.91
333 | K24C | 2.19
334 | K24T | 2.63
